Measured values as given in publication PMC5902653 (The Analyst, 2018).
Where two headings read alike, the source gives them in different places. *: point of attachment. FITC = O=C1OC2(c3ccc(O)cc3Oc3cc(O)ccc32)c2ccc(NC(=S)*)cc21; βAla = NCCC(=O)O

Assays:
Test in all cases: cross-linking
[1] = biological target: heat shock protein 70 (Hsp70), labeled with AlexaFluor488 (UniProt P0DMV8)
[2] = biological target: T1, KIX domain of mouse CREB-binding protein (mouse, UniProt P45481 586-665)
[3] = biological target: T1, KIX domain of mouse CREB-binding protein; remark: listed apart in the source

T1 sequence (P45481 586-665): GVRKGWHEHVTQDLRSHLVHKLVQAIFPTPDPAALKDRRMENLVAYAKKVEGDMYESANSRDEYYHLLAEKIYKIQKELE
Chain of bcl2 association athanogene 3 (Bag3) (O95817 whole entry): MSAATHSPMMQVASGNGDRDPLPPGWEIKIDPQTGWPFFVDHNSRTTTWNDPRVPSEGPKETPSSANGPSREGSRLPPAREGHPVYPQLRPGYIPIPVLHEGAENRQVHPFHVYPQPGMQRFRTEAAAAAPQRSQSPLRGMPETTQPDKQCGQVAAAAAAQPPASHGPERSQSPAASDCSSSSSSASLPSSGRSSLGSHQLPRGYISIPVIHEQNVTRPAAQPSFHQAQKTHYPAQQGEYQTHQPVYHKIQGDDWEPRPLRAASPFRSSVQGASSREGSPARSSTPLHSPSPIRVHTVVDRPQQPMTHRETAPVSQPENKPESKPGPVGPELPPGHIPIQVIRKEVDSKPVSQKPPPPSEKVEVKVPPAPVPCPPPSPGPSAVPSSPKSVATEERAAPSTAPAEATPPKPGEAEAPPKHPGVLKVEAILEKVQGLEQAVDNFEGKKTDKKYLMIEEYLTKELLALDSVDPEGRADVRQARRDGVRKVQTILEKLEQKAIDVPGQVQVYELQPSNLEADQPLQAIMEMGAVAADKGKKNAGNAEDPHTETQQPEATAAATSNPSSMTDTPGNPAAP

Kd [1] [nM]	Molecule	further results
26	bcl2 association athanogene 3 (Bag3) (from UniProt O95817 1-575) (natural protein)	
1200	heat shock protein 70 (Hsp70), labeled with AlexaFluor488 (from UniProt P0DMV8 1-641) (natural protein)	
	{FITC-βAla}-GTDKELSDLLDFSAMFS-NH2 (SMILES CSCC[C@H](NC(=O)[C@H](C)NC(=O)[C@H](CO)NC(=O)[C@H](Cc1ccccc1)NC(=O)[C@H](CC(=O)O)NC(=O)[C@H](CC(C)C)NC(=O)[C@H](CC(C)C)NC(=O)[C@H](CC(=O)O)NC(=O)[C@H](CO)NC(=O)[C@H](CC(C)C)NC(=O)[C@H](CCC(=O)O)NC(=O)[C@H](CCCCN)NC(=O)[C@H](CC(=O)O)NC(=O)[C@@H](NC(=O)CNC(=O)CCNC(=S)Nc1ccc2c(c1)C(=O)OC21c2ccc(O)cc2Oc2cc(O)ccc21)[C@@H](C)O)C(=O)N[C@@H](Cc1ccccc1)C(=O)N[C@@H](CO)C(N)=O) [E2A17 peptide, FITC labeled]	Kd [2]: 1100 ± 200 nM
	{FITC-βAla}-KEKRIKELELLLMSTENELKGQQALW-NH2 (SMILES CC[C@H](C)[C@H](NC(=O)[C@H](CCCNC(=N)N)NC(=O)[C@H](CCCCN)NC(=O)[C@H](CCC(=O)O)NC(=O)[C@H](CCCCN)NC(=O)CCNC(=S)Nc1ccc2c(c1)C(=O)OC21c2ccc(O)cc2Oc2cc(O)ccc21)C(=O)N[C@@H](CCCCN)C(=O)N[C@@H](CCC(=O)O)C(=O)N[C@@H](CC(C)C)C(=O)N[C@@H](CCC(=O)O)C(=O)N[C@@H](CC(C)C)C(=O)N[C@@H](CC(C)C)C(=O)N[C@@H](CC(C)C)C(=O)N[C@@H](CCSC)C(=O)N[C@@H](CO)C(=O)N[C@H](C(=O)N[C@@H](CCC(=O)O)C(=O)N[C@@H](CC(N)=O)C(=O)N[C@@H](CCC(=O)O)C(=O)N[C@@H](CC(C)C)C(=O)N[C@@H](CCCCN)C(=O)NCC(=O)N[C@@H](CCC(N)=O)C(=O)N[C@@H](CCC(N)=O)C(=O)N[C@@H](C)C(=O)N[C@@H](CC(C)C)C(=O)N[C@@H](Cc1c[nH]c2ccccc12)C(N)=O)[C@@H](C)O) [c-Myb peptide, FITC labeled]	Kd [3]: 3100 ± 500 nM
